We go through seven molecules from US12077763B2, “RNA-based control of powdery mildew” (Greenlight Biosciences, Inc., priority 2021, dated 2024).

The chains are these.
B1: GS3472 (nucleic acid)
sense: UUAUUUGUGGCGACCUACCGAAAAUAAUCGAAGAUUCGCAAUGAGUGAUGAGUUAGCACAGGACGAUGAAGGUUUUGAAAUAUCCGACUUUGGAGUUGAAGACGAUGAAAUAGAGUCUACUAUAGGCCAAAAAGAAGAUAGAGAUCAAAGGCCAGAAGAGACGAGGUACAAUCCUGCGCCGAAAAAUUCCGGACGAAAGACUGUAAAAAAUACAACACGUGAGAGCUUAGAAAGAGAAACGAUAUUUACUGUUGGUGAAGACGGGGACAAAUGGUCAAAUAAUGAUAGUGACGAGGAGCAUGUUAAUCUCGUUAGUGGGUCAAACAAGCCUUCUUAGAUUUACGACAAUUUUUUU
antisense: AAAAAAAUUGUCGUAAAUCUAAGAAGGCUUGUUUGACCCACUAACGAGAUUAACAUGCUCCUCGUCACUAUCAUUAUUUGACCAUUUGUCCCCGUCUUCACCAACAGUAAAUAUCGUUUCUCUUUCUAAGCUCUCACGUGUUGUAUUUUUUACAGUCUUUCGUCCGGAAUUUUUCGGCGCAGGAUUGUACCUCGUCUCUUCUGGCCUUUGAUCUCUAUCUUCUUUUUGGCCUAUAGUAGACUCUAUUUCAUCGUCUUCAACUCCAAAGUCGGAUAUUUCAAAACCUUCAUCGUCCUGUGCUAACUCAUCACUCAUUGCGAAUCUUCGAUUAUUUUCGGUAGGUCGCCACAAAUAA
B2: GS3524 (nucleic acid)
sense: UCAAGUCCACUUCGAUUUGUAAAGCAAGAAGUUAUGAGACCUUGAGAAUGACUGAGGUAGGCCGAAUAAGAUUUUCAGAUUCUAAAAUACUGGAUUUUGGUACCAAUUCAUGAUCCUUUCUGGCCCCCUUACAUUGGCGACAAGGCAGAUAGUCAUCGAGUUGGUCUUUUCCAGUCAAAGAAUGAUAAUCUCCAACGUCUUUCCGGGAAACAGAAGUUGUAUUGACAUUAAUUACAGCUGUGGAUGAGGAUGAACGAUAAUAUUGGCGUUGAGCUACAGGGAAGGGAUUCAACAGAUGCCAUUGCCAUUCAUAAUUUCCAUGAAGCCAAGUCGUUGAAGCCAGAGAUGCAAGUGUAUGGAAGAAUCCCAAGAGCCAAUUGAUUGAAGACAGAAUUACU
antisense: AGUAAUUCUGUCUUCAAUCAAUUGGCUCUUGGGAUUCUUCCAUACACUUGCAUCUCUGGCUUCAACGACUUGGCUUCAUGGAAAUUAUGAAUGGCAAUGGCAUCUGUUGAAUCCCUUCCCUGUAGCUCAACGCCAAUAUUAUCGUUCAUCCUCAUCCACAGCUGUAAUUAAUGUCAAUACAACUUCUGUUUCCCGGAAAGACGUUGGAGAUUAUCAUUCUUUGACUGGAAAAGACCAACUCGAUGACUAUCUGCCUUGUCGCCAAUGUAAGGGGGCCAGAAAGGAUCAUGAAUUGGUACCAAAAUCCAGUAUUUUAGAAUCUGAAAAUCUUAUUCGGCCUACCUCAGUCAUUCUCAAGGUCUCAUAACUUCUUGCUUUACAAAUCGAAGUGGACUUGA
B3: GS3478 (nucleic acid)
sense: ACCGUCCUGAAAGUAAAGGUGAAAAGAAAGAGCGUCUUCUCAAGGAAGCUACAGCUAUUAAAAAUGGCAACAAGGAGGAUGUCAGUAAGAAGCCAUACACAGUAAAGUAUGGACUCAAUCAUGUCGUUGGUUUGGUUGAGAAUAAGAAAGCUUCUCUAGUCUUAAUACCCAAUGAUGUCGAUCCUAUAGAGUUGGUUAUAUUUCUUCCAGCUCUUUGUCGAAAGAUGGGAGUUCCUUAUGCUAUCAUUAAAGGAAAAGCUAGACUUGGUACUGUUGUACACAAGAAAACUGCUGCUGUAUUGGCAAUAACUGAAGUUCGAUCCGAAGAUAAAUCAGAGCUAUCAAAAUUAAUCCAAGCUAUUAAAGAAGGCUACUCUGAGAAAUAUGAAGAAGCUAAG
antisense: CUUAGCUUCUUCAUAUUUCUCAGAGUAGCCUUCUUUAAUAGCUUGGAUUAAUUUUGAUAGCUCUGAUUUAUCUUCGGAUCGAACUUCAGUUAUUGCCAAUACAGCAGCAGUUUUCUUGUGUACAACAGUACCAAGUCUAGCUUUUCCUUUAAUGAUAGCAUAAGGAACUCCCAUCUUUCGACAAAGAGCUGGAAGAAAUAUAACCAACUCUAUAGGAUCGACAUCAUUGGGUAUUAAGACUAGAGAAGCUUUCUUAUUCUCAACCAAACCAACGACAUGAUUGAGUCCAUACUUUACUGUGUAUGGCUUCUUACUGACAUCCUCCUUGUUGCCAUUUUUAAUAGCUGUAGCUUCCUUGAGAAGACGCUCUUUCUUUUCACCUUUACUUUCAGGACGGU
B4: GS3477 (nucleic acid)
sense: CCUCUCGCCAUUAAAUACUCAUAAAAUAUCCGCACGUACAGUUCUCUUCACUUCGGUACCUGCUAAAUACAGAGAUGAAUCUAAAUUACGUCAGAUAUUUGGCUCAUGCGUGAAAAAGGUUUGGAUAACAAAAGACAGUUCAGAGGUUGACGACCUUGUAUCUGAGCGCGACGAUCUCCUACUAAGAUUAGAAUCAUCUGAAGUUAAGCUUAUUAAAAUUGCAAAUACAGAGAGACUCAAGAUUAACAAGAAAAAAGCUGGAGAUAAUAACUCAUCAUCUGAAGUCGCAGCUCCUGUCCCAGCAUCUCUAGUUGACUACUGGGUUCCAGAAAAUAAGCGUCCGACUCAUAAGCUUGGCUUAUUUGGGCUAGUUGGACAGAAAGUUGAUACGAUUAAAU
antisense: AUUUAAUCGUAUCAACUUUCUGUCCAACUAGCCCAAAUAAGCCAAGCUUAUGAGUCGGACGCUUAUUUUCUGGAACCCAGUAGUCAACUAGAGAUGCUGGGACAGGAGCUGCGACUUCAGAUGAUGAGUUAUUAUCUCCAGCUUUUUUCUUGUUAAUCUUGAGUCUCUCUGUAUUUGCAAUUUUAAUAAGCUUAACUUCAGAUGAUUCUAAUCUUAGUAGGAGAUCGUCGCGCUCAGAUACAAGGUCGUCAACCUCUGAACUGUCUUUUGUUAUCCAAACCUUUUUCACGCAUGAGCCAAAUAUCUGACGUAAUUUAGAUUCAUCUCUGUAUUUAGCAGGUACCGAAGUGAAGAGAACUGUACGUGCGGAUAUUUUAUGAGUAUUUAAUGGCGAGAGG
B5: GS3474 (nucleic acid)
sense: UAAGCAAUUUGAUGAUGAUCAUUAUGGUCUGGAGAAAGUCAAGAAAAGACUCCUUGAAUAUUUAGCGGUUCUCAAACUAAAGCAAUCAAUAAAUCAAGACAUUGACAUCAAGAUUAAGAAGGCAUCUGAAGAAAGAGCACAUGAAAAACUAGAAAUCUUAAAAAGUCAGAGAAUGGUUGAUAAAUCGCCUAUCUUGCUACUCGUUGGUCCUCCAGGUGUAGGUAAAACAAGCCUCGCAAAAUCUGUUGCAACAGCACUUGGUCGUAAAUUUCAUCGAAUUUCUCUUGGUGGUGUUCGGGAUGAGGCUGAAAUUAGGGGACAUCGUCGUACUUACGUUGCAGCUAUGCCAGGCCUCAUAAUUCAAGGGCUUAAGAAAGUUGGAGUGUGCAAUCCCGUUUUUCUUUUAGAUGAAAUUGAUAAAAUUGGGAGUUCUAAUUUCCAAGGUGAUCCUAGCGCUGCAAUGCUCGAAGUCCUCGAUCCAGAGCAGAAUCACAGUUUUACAGACCACUACGUCAAUAUUCCAGUAGACCUUAGCAAAGUUCUGUUUAUCGCUACUGCAAAUAGUCUGGAUACUAUUUCACCACCACUCUUAGACAGA
antisense: AAUGACAUGGAUUAUGUUGAACAUCAUUUUGGUCCUGCAGGCUUAAAUCGACAGGACAUUGUCCAUACAUACAGAACUCUUAAUGCAAAGAUUAUUAAAGCUGACCUCCUUCGUUAUUUGAUUAUGUAUGUGGAAGGAGGUCUAUACGCUGACAUUGAUGUCGAAGCUUUACGUCCAAUUGAACGUUUUAUUCCAGAGCGAUGGAACGAGAAAGACAUUGAUAUGAUUGUAGGGGUCGAGAUUGAUAUGCCGCAUUAUUCCGAUCACCCUAUUCUUGGUCCUAAAUCUAAAUCAUUUUGCCAAUGGACAUUUAUGUGCAAGCCACGUCUACCGGUGAUGAUGCAAUUAAUUGAUAAUAUUAUCGUCUGGCUCAAUCAGCUUUCCCGA
B6: GS3467 (nucleic acid)
sense: CCCAGCUUCAUUAGAGUGGUCAAAGAAACCAUUGUAGGUGUGAAUAGGAGGCUGAACUAGAGAUAAGAUGGUAUUAUGCAGAAUAUGACAAGUAGGAUUGCAUUGCUUAUCUUUAAUAAUCUCUCUCUUAAUUGUUAUCUUAGAAGCAAAGUUAGUUUCAUCAUCGCUUAAUUUUAAAUUAAUAAGUGAAACUUUGCUUCCAUAAGGUGAGCUACAAGGUGAUGGCUGAAUUAAAUCUUCAACUUUUUUAUUAUCAGUCCUUAUUUCUAGGUCAUAUGACCUAGAAUCUUCUAUAAAUUUUCUAAGCUUAUUUGAAGAAUCCUUAGUAGGUGUUUUUGCAAUGAAACGAUUAUUUUCUUCAGGUAAGAUUGUAGCGACGCUAACCGAUGACUCAGU
antisense: ACUGAGUCAUCGGUUAGCGUCGCUACAAUCUUACCUGAAGAAAAUAAUCGUUUCAUUGCAAAAACACCUACUAAGGAUUCUUCAAAUAAGCUUAGAAAAUUUAUAGAAGAUUCUAGGUCAUAUGACCUAGAAAUAAGGACUGAUAAUAAAAAAGUUGAAGAUUUAAUUCAGCCAUCACCUUGUAGCUCACCUUAUGGAAGCAAAGUUUCACUUAUUAAUUUAAAAUUAAGCGAUGAUGAAACUAACUUUGCUUCUAAGAUAACAAUUAAGAGAGAGAUUAUUAAAGAUAAGCAAUGCAAUCCUACUUGUCAUAUUCUGCAUAAUACCAUCUUAUCUCUAGUUCAGCCUCCUAUUCACACCUACAAUGGUUUCUUUGACCACUCUAAUGAAGCUGGG
B7: GS3523 (nucleic acid)
sense: UAACGAGAGAGAAUACACGGUAAAGACAGUAGUAUGGCAUAUGAUGCAAAAUGUAGAAAAGAUUGUAAUUGAGUUGGCAGUAAGUUCAUUCACGAAAAAUGAAUUAUUUUCCACACCAUAUCCGGGCUGAGGAAGGAAGACAUUUGUUUUCAAGUCAAGUUAAUGAAAAAACCAAAAAUAAAACUCAAACACACAGUGAGUAAUUUUUAUUAAGGUGGUCCAAUAAUAAUUUUUUCUGACAUGUACUCCUUGUAGUUUUGAGAUGAAAAUAGAGAUAAUAUUGAGUCUGUCGUUAUCCGAAACAGUUUAUGUUAGAGGUUGAUAAAUGACGAUACAAAAUGUAUAUAUUAGGAAAUCAAUUUACCGUGACCAAUGAGAAAAGAGGAGGUCUAAUU
antisense: AAUUAGACCUCCUCUUUUCUCAUUGGUCACGGUAAAUUGAUUUCCUAAUAUAUACAUUUUGUAUCGUCAUUUAUCAACCUCUAACAUAAACUGUUUCGGAUAACGACAGACUCAAUAUUAUCUCUAUUUUCAUCUCAAAACUACAAGGAGUACAUGUCAGAAAAAAUUAUUAUUGGACCACCUUAAUAAAAAUUACUCACUGUGUGUUUGAGUUUUAUUUUUGGUUUUUUCAUUAACUUGACUUGAAAACAAAUGUCUUCCUUCCUCAGCCCGGAUAUGGUGUGGAAAAUAAUUCAUUUUUCGUGAAUGAACUUACUGCCAACUCAAUUACAAUCUUUUCUACAUUUUGCAUCAUAUGCCAUACUACUGUCUUUACCGUGUAUUCUCUCUCGUUA

One series deals with E. necator. Kind of series: Leaf disc assay, dry inoculum (settling tower), decrease in disease severity / hyphal growth (Example 2). As to conditions: decrease in disease severity (hyphal growth) relative to untreated control; time point 1 (untreated control hyphal growth ≥50%); value ± SE.
Consider B1, for which the “% decrease =/− SE TP1” value is recorded as 28 ± 5%.
The same measure, in the same setting: next, B2: 3 ± 11%.
On the same count and under the same terms, next, B3: 29 ± 4%; B4: 28 ± 4%; B5: 17 ± 5%.
Take B6: the “% decrease =/− SE TP1” value is recorded as 25 ± 4%.
B7: the “% decrease =/− SE TP1” value is reported as 8 ± 11%.

Staying with this series, now noted: decrease in disease severity (hyphal growth) relative to untreated control; time point 2; value ± SE.
In the case of B1, the “% decrease =/− SE TP2” value is listed as 22 ± 6%.
The same measure, in the same setting: for B2 the value was 22 ± 12%; for B3, 13 ± 9%; for B4, 7 ± 8%.
Still for that read-out and setting: next, B5: 9 ± 8%.
On the same count and under the same terms, next, B6: 13 ± 7%; B7: 12 ± 10%.
